The results in this text go back to the supplement of paper PMC12042874.

± gives the uncertainty stated by the source.

This data set is described as follows: amyloid nucleation score (Sup35N fusion, yeast selection) (log enrichment); library NNK3; higher = more nucleation; inactive = no reads after selection. In a few lines: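 After 24 hours of induction with 100 μM copper sulfate, psi-negative yeast expressing peptides of 20 random codons fused to Sup35N were grown for 7 days at 30°C on medium lacking adenine and uracil. Input and output plasmid inserts were sequenced with Illumina, and sequences with under 100 input reads were discarded. Scores for nucleation are the DiMSum log enrichment of output over input reads, centred on the mode score of non-aggregating sequences.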

Take GCERMFIMVYSL: the amyloid nucleation score entry is “inactive”.
For the substance VCHLWSLTVYGAVFQHLNFM, the amyloid nucleation score result was “inactive”.
Next, GFSYM: “inactive”.
Next, ILSLSQMNT: “inactive”.
As to DTYRV, the amyloid nucleation score result is “inactive”.
As for ETAYSASVRDT, the entry is “inactive”; as for GGSARCNRLCWYAVLDVLLL, “inactive”.
As for QVDISNLDCQSCRDKRVGLG, the entry is “inactive”; as for YKVGRSHCGKKSEDLP, “inactive”; as for TVLCRYVAYLVVSANYLDEC, “inactive”.
As for HGPAMTSRSRNTSVLVLVSP, the entry is “inactive”.
In turn, VYMNGIKVKDGLSTYWVPRE registered an amyloid nucleation score of -0.161 ± 0.69.
As for YYFRRWGHS, the entry is “inactive”; as for TRSRFWRRTKLPLVSVRYHN, “inactive”.
As for NCTFAGLAMFGNILN, the entry is “inactive”.
With EFITSYMFSFVYVKNLWCKY, the amyloid nucleation score result is “inactive”.
As for ASDSCGG, the entry is “inactive”; as for KMCDECIVLS, “inactive”; as for VIARDDINCVRDGGQGLQIS, “inactive”.
As for KVCSVVLLGLFSYMYRGYVM, the entry is “inactive”; as for LSGNCKYRTLWFIGPYSHFC, “inactive”; as for LNNRA, “inactive”.
Next, FESMGFHPRSVIYEYVCELN: “inactive”; VFNSSKDLVSEKEPLRYMIG: “inactive”.
IHLSCMIIKRHLSRYCDQSR: the amyloid nucleation score result was “inactive”.
As for KCNRFRG, the entry is “inactive”; as for HNVAYCSGGFCDPYSNFREG, “inactive”.
As for RLHLRKYFFETAHWICMNDG, the entry is “inactive”; as for MRYVHRCSRWYLLQQLLRIH, “inactive”.
YIKLGYQYLYVGE: the amyloid nucleation score entry is “inactive”.
As for YAVSLMIFGFWGSSMFSHPS, the figure is 0.779 ± 0.11.
As for WCSGLPGLNRWSSTIPICCY, the entry is “inactive”.
As for NFYRFNIVRNNVLM, the entry is “inactive”; as for NVWDMEEERWNLKAILTMWA, “inactive”.
ENIVCLAGKQHNHEMG: the amyloid nucleation score entry is “inactive”.
As for SFCFFRVTLSCTC, the amyloid nucleation score result was “inactive”.
In the case of WRGKKSWAWPDQCLI, the amyloid nucleation score entry was “inactive”.
Next, WRMDSRYYCYYQFLSLSYQW: “inactive”; SLSFIECLMELNNLVYYLGS: “inactive”.
As for GYSVYYANVSVRGLKSRDHC, the entry is “inactive”; as for LLNSM, “inactive”; as for LTFIMLCIS, 1.24 ± 0.12.
As for QMRVQMSCCFLGTCFSGRHW, the figure is 3.29 ± 0.056; as for EFFCWIDSSIGSRYFSMTED, “inactive”.
Take LSVANQNCVKLDIVHM: the amyloid nucleation score result is “inactive”.
As for HLFINL, the entry is “inactive”; as for DRNRCIVYTHGEISRLQ, “inactive”.
Next, GLYSDNSVYTLQMFIEGAHH: 0.4 ± 0.3.
Turning to ENAYLRSCRVVVKESSNVVV, the amyloid nucleation score was -0.906 ± 1.4.
As for LFHDLGFAD, the entry is “inactive”; as for LFVLELVRIWVTYNWCSVSF, “inactive”; as for YLFWLYERRKGDYISPHVLR, “inactive”.
Next, LTVCV: “inactive”; HMPVSIFSAFVYMTQNHAIG: 1.75 ± 0.062; GSNRQTVRFNWS: “inactive”.
As for GAHFWKNGVGRWLPRNC, the entry is “inactive”; as for WCTAAM, “inactive”.
With VDETPSSHMSIPVMERVLCG, the amyloid nucleation score result is “inactive”.
Turning to CAKDMMCRVYMSLLLHLGVD, the amyloid nucleation score result was “inactive”.
As to VKAVLY, the amyloid nucleation score result was “inactive”.
Next, PMYTMRVWLMMSS: “inactive”.
As for CRDSWFWSV, the entry is “inactive”.
The substance VHLNCCTVLKEVRLFT registered an amyloid nucleation score of 0.78 ± 0.26.
As for CMVLDGRYNGWSISVWDARL, the entry is “inactive”; as for DYVFPRVYRGS, “inactive”.
Next, LNVMFSFRYPWFSVFVLMIV: “inactive”; NIDNMSMVRILFNT: 1.44 ± 0.11; RPVSGTNFINAN: “inactive”.
Regarding QINSSLDMMRHTFCSEGYAV, the amyloid nucleation score result is “inactive”.
As to MTTVKTDCFSQSRYYRHWET, the amyloid nucleation score entry was “inactive”.
Turning to LMLGYLKYLYGAANRICYRS, the amyloid nucleation score entry is “inactive”.
For the substance RILFDAARRIRWTVMCTKSC, the amyloid nucleation score entry was “inactive”.
KRYSIMFSKASQ displayed an amyloid nucleation score of 0.986 ± 0.15.
Next, SSSLCASWHPYLKWKSYRMF: “inactive”; YLTMYDSNDIFTIVATVMST: “inactive”.
NITFISSWIMQEYTFVLCSF gave an amyloid nucleation score of 1.96 ± 0.065.
As for MIRTFKNSYISNGHCMVRRH, the entry is “inactive”; as for TDILLYMIFVLHVVSNGVLG, “inactive”; as for SLGTLISLPYTSA, “inactive”.
Next, FIVFTDF: “inactive”; GEWSNLSNCTVNNVSRSGCS: “inactive”.
As for DVMEVNLVPRAFNLCSSSGL, the amyloid nucleation score entry is “inactive”.
Next, FVNVKFQTLCNYIWCTSPYE: 2.9 ± 0.06.
Next, LVSHSTMLPVSFFAHYRGEV: “inactive”; SSNTTMRINSVRH: “inactive”.
Consider SMCMRCLSVSKKKAQKSDEP, for which the amyloid nucleation score result was “inactive”.
As for NVDGKLVD, the entry is “inactive”; as for RFWSMRALR, “inactive”.
Next, QDLTLLCVSIWWKLGWSESR: “inactive”; YCFDI: “inactive”.
As to REKTWFCSFIVTLGVCGWDG, the amyloid nucleation score result was “inactive”.
Next, AYLSFLLFCCCKTLVWLVLR: 0.841 ± 0.13; KLNSGEVFWQDTL: “inactive”.
Next, MSYEDTPCH: “inactive”.
As for KVCNSF, the entry is “inactive”; as for YFKYTN, 1.32 ± 0.15; as for QLRICTR, -0.358 ± 1.1.
In the case of SMNPIECYNAHLVSSGFWVQ, the amyloid nucleation score result was “inactive”.
As for NSCTDSGPMGTSFSCTLGF, the entry is “inactive”; as for TCGINYRGYEDPRPCRGTEI, “inactive”.
As for LRSSYQNLDPSVCQQFHLGE, the figure is -0.075 ± 0.66.
As for YWFSQFVIFGCSS, the entry is “inactive”; as for MSTLVTMYHYGVGGCVWFYL, “inactive”.
As to NWDRTIMCMYY, the amyloid nucleation score turned out to be 2.08 ± 0.075.
CGLDSCLVICQYK showed an amyloid nucleation score of 0.584 ± 0.28.
On to SLVTRGLPVCRFRSDSDYSI, for which the amyloid nucleation score result was “inactive”.
Take GTAIIEGTM: the amyloid nucleation score result was “inactive”.
As for YISFVFDRYNKSYGTARICK, the figure is -0.506 ± 0.82.
As to LATHSICVKGNSRVSELISA, the amyloid nucleation score entry was “inactive”.
Next, QSFLDTSPHLDHVVNNSIKH: “inactive”; FTSNAESTLWTRPRNYRNVS: “inactive”; YIEAIYRDVPPECGTLLRTL: “inactive”.
Consider KYCGVTNLA, for which the amyloid nucleation score entry was “inactive”.
As for GVTLTTLDSLSDFGWLIE, the entry is “inactive”.
As for YVSSRNRHYGSPYLGVCVFK, the entry is “inactive”.
Turning to SRVGGISC, the amyloid nucleation score result was “inactive”.
As for FFYSYGRLNPKYDRVYISFG, the figure is -0.661 ± 0.98; as for CTSTAVLGSVLCK, “inactive”; as for MWFAKAGTCNGSWLDMLSGW, “inactive”.
As for PKTIRDVYVDGEEHVHFRWR, the entry is “inactive”.
Next, YVTHMQLGYLSVMCMEVKRG: 1.35 ± 0.085; FPYVLVSTPVSPPICW: “inactive”; TFLNRIQWSKWILN: “inactive”.
Consider QHKQVNGFTITYTLGHCYTY, for which the amyloid nucleation score result is “inactive”.
WLLHLIYD: the amyloid nucleation score result was “inactive”.
As for YTLAFECLPSLTMQVRNWMM, the entry is “inactive”; as for WDFRV, “inactive”.
Regarding VCREGLRDSRSAGGFFSYII, the amyloid nucleation score result was “inactive”.
In turn, ARHVLAGCKRMLYHFEGRVG returned an amyloid nucleation score of -0.643 ± 1.3.
HELFRTSHRLRCYFNPHSHI: the amyloid nucleation score result is “inactive”.
As for WVHSVKENVSCGSRF, the entry is “inactive”; as for GWNLTHRMSTGSKLLCPLRI, “inactive”.
Next, TVPFTPIICESVFSD: “inactive”.
